For assay [1], the target named is RAGE ligand (not named in the glycoform binding study). As to the kind of experiment: binding assay of RP-HPLC glycoform fractions; method and ligand not stated; reference sample; data not shown.
Assay [2] has the same target. Kind of assay: binding assay of RP-HPLC glycoform fractions; reference is the 3-glycan fraction; method and ligand not stated; data not shown.
For assay [3] the target is unchanged. Kind of assay: binding assay of RP-HPLC glycoform fractions; method and ligand not stated; data not shown.

This note sets out measurements from patent US20130142792A1.

In turn, “control RAGE fusion protein (mixture of 67% 3-glycan and 22% 2 glycan RAGE fusion protein) (Fc fusion)” yielded a relative binding in assay [1] of 100%.
In turn, “0-glycan RAGE fusion protein (RP-HPLC fraction of wild-type RAGE fusion protein) (Fc fusion)” registered a fold increase in binding against the 3 glycan fraction in assay [2] of 10 fold. In addition, the relative binding (percent of control RAGE fusion protein) in assay [3] is 529%.
